Drawing on US8772007 (dated 2014), this text covers elution volume for 8 molecules.

Data set [1] deals with the molecule itself. In words: self-association; Sephadex 200 sizing column, fractions assayed for pNB activity; standards 669 kDa 16 ml, 158 kDa 24 ml, 43 kDa 26 ml, 14 kDa 32 ml.
In data set [2] the target is S279_M70aE8 metagenomic GDSL-type esterase. The data set is described as above.

B1: S261_M2aA12 metagenomic GDSL-type esterase (enzyme)
chain: MKNILAFGDSLTWGFVAGQDARHPFETRWPNALAAGLGGKARVIEEGQNGRTTVFDDAATFESRNGSVALPLLLISHQPLDLVIIMLGTNDIKFAARCRAFDASMGMERLIQIVRSANYMKGYKIPEILIISPPSLVPTQDEWFNDLWGHAIAESKLFAKHYKRVAEELKVHFFDAGTVAVADKTDGGHLDAVNTKAIGVALVPVVKSILAL
notes: Metagenomic clone; also called pET26_m2aA12
For the molecule B1, the elution volume in data set [1] was 24 mL.

B2: Sinorhizobium meliloti SmeI (SMa1993) (enzyme)
chain: MTINSHSWRTLMVEKRSVLCFGDSLTWGWIPVKGSSPTLRYPYEQRWTGAMAARLGDGYHIIEEGLSARTTSLDDPNDARLNGSTYLPMALASHLPLDLVIIMLGTNDTKSYFHRTPYEIANGMGKLVGQVLTCAGGVGTPYPAPKVLVVAPPPLAPMPDPWFEGMFGGGYEKSKELSGLYKALADFMKVEFFAAGDCISTDGIDGIHLSAETNIRLGHAIADKVAALF
B2 showed an elution volume in data set [1] of 24 mL.

B3: Mesorhizobium loti Mlo I (Q98MY5) (enzyme)
chain: MKTVLCYGDSLTWGYNAEGGRHALEDRWPSVLQAALGAGVQVIADGLNGRTTAFDDHLAGADRNGARLLPTVLTTHAPIDLIIFMLGANDMKPWIHGNPVAAKQGIQRLIDIVRGHDYPFDWPAPQILIVAPPVVSRTENADFKEMFAGGDDASKFLAPQYAALADEAGCGFFDAGSVAQTTPLDGVHLDAENTREIGKALTPIVRVMLEL
notes: Expressed in E. coli from pET26_Mlo; also called pET26_Mlo; pET26_MlO
B3: the elution volume in data set [1] worked out at 24 mL.

B4: Moraxella bovis Mbo (AAK53448) (enzyme)
chain: KEFSQVIIFGDSLSDTGRLKDMVARKDGTLGNTLQPSFTTNPDPVWSSLFAQSYGKTASPNTPDNPTGTNYAVGGARSGSEVNWNGFVNVPSTKTQITDHLTATGGKADPNTLYAIWIGSNDLISASQATTTAEAQNAIKGAVTRTVIDIETLNQAGATTILVPNVPDLSLTPRAIYGESLMAGVQDKAKLASSLYNSGLFEALNQSTANIIPANTFALLQEATTNKEAFGFKNTQGVACQMPARTTGADDVASTSLACTKANLIENGANDTYAFADDIHPSGRTHRILAQYYRSIMDAPTHMGKLSGELVKTGSAHDRHVYRQLDRLSGSQHSIWANVYASDRTDPTTQIGLDVAGSSSHTGAYLSHQNQDYVLDDTLSSDVKTIGMGLYHRHDIGNVRLKGVAGIDRLSVDTHRHIDWEGTSRSHTADTTARRFHAGLQASYGIDMGKATVRPLIGVHAQKVKVNDMTESESTLSTAMRFGEQEQKSLQGEIGVDVAYPISPALTLTGGIAHAHEFNDDERTINATLTSIREYTKGFNTSVSTDKSHATTAHLGVQGQLGKANIHAGVHATHQDSDTDVGGSLGVRLMF
notes: Described as an outer membrane localized autotransporter protein; also called pET26_Mbo
For B4, the elution volume in data set [1] amounted to 24 mL.

B5: Sinorhizobium meliloti SmeII (Q92XZ1) (enzyme)
chain: MEETVARTVLCFGDSNTHGQVPGRGPLDRYRREQRWGGVLQGLLGPNWQVIEEGLSGRTTVHDDPIEGSLKNGRTYLRPCLQSHAPLDLIIIMLGTNDLKRRFNMPPSEVAMGIGCLVHDIRELSPGRTGNDPEIMIVAPPPMLEDLKEWESIFSGAQEKSRKLALEFEIMADSLEAHFFDAGTVCQCSPADGFHIDEDAHRLLGEALAQEVLAIGWPDA
notes: Expressed in E. coli from pET26_SmeII; also called pET26_SmeII
B5 had an elution volume in data set [1] of 24 mL.

B6: Salmonella typhimurium Stm (AAC38796) (enzyme)
chain: FDSLTVIGDSLSDTGNNGRWTWDSGQNKLYDEQLAERYGLELSPSSNGGSNYAAGGATATPELNPQDNTADQVRQWLAKTGGKADHNGLYIHWVGGNDLAAAIAQPTMAQQIAGNSATSAAAQVGLLLDAGAGLVVVPNVPDISATPMLLEAVITAGLGAAAPPALKAALDALAEGATPDFASRQQAIRKALLAAAATVSSNPFIQQLLVEQLLAGYEAAAGQASALTDYYNQMEEKGLEQHGGNIARADINGLFKEILANPQAFGLTNTVGMACPPGVSASACSSAMPGFNASQDYVFADHLHPGPQVHTIIAQYIQSIIAAPVQATYLNQSVQSMAQGSRTTLDSRYQQLRQGENPVGSLGMFGGYSGGYQRYDNNEADGNGNHNNLTVGVDYQLNEQVLLGGLIAGSLDKQHPDDNYRYDARGFQAAVFSHLRAGQAWLDSDLHFLSAKFSNIQRSITLGALRRVEEGETNGRLSGASLTSGYDFVMVPWLTTGPMLQYAWDYSHVNGYSEKLNTSTSMRFGDQNAHSQVGSAGWRLDLRHSIIHSWAQINYRRQFGDDTYVANGGLKSTALTFSRDGKTQDKNWVDIAIGADFPLSATVSAFAGLSQTAGLSDGNQTRYNVGFSARF
notes: Described as an outer membrane localized autotransporter protein; also called Sty
On to B6, for which the elution volume in data set [1] stood at 24 mL.

B7: Sinorhizobium meliloti RSM02162 (G00355) (enzyme)
chain: MVEKRSVLCFGDSLTWGWIPVKESSPTLRYPYEQRWTGAMAARLGDGYHIIEEGLSARTTSLDDPNDARLNGSTYLPMALASHLPLDLVIIMLGTNDTKSYFHRTPYEIANGMGKLVGQVLTCAGGVGTPYPAPKVLVVAPPPLAPMPDPWFEGMFGGGYEKSKELSGLYKALADFMKVEFFAAGDCISTDGIDGIHLSAETNIRLGHAIADKVAALF
notes: Synthetic gene G00355, expressed in E. coli from pMC355rbs; also called pMC355rbs
In data set [1], B7 had an elution volume of 24 mL.

B8: S279_M70aE8 metagenomic GDSL-type esterase (enzyme)
chain: MPKIAKLAPSDVIVAFGDSLTFGTGATEAESYPIVLAQLIGRTVVRAGVPGEVTEGGLARLTDVIEEHKPKLIIVCLGGNDMLRKVQEDQTRANLRAIIKTIKAQGIAVVLVGVPKPALVTSAPPFYEEIAKEFGIPYEGKIVTDVLYQRDQKSDSIHPNAKGYRRMAEAIATLLKKSGAI
B8 registered an elution volume in data set [2] of 32 mL.
